Data reported in US20260306683 (published 2026).
Like-named read-outs stand apart in the source and are kept apart here.

Columns and labels:
Assay in all cases: ELISA
[1] = molecular target: T1, misfolded (denatured) human SOD1 (human, UniProt P00441)
[2] = molecular target: T1, misfolded (denatured) human SOD1; remark: listed apart in the source
[3] = molecular target: T1, misfolded (denatured) human SOD1; remark: listed apart in the source

T1 sequence (P00441 2-154): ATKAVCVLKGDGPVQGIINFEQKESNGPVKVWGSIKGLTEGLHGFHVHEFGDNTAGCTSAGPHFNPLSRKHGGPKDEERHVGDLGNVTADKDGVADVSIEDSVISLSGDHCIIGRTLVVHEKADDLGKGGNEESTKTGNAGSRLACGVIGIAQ

| Binder | EC50 [1] | EC50 [2] | EC50 [3] |
| --- | --- | --- | --- |
| Degly-natZr-DFO-AP-101 (antibody, V domains shown, EndoS2 deglycosylated, DFO conjugated on lysines (0.6:1.0), natZr labelled) VH: QVQLVQSGAEVKKPGASVTLSCKASGYTFTAYYIHWVRQAREQGLEWMGVINPSTGTTFYAQNFPDRVSVTRDTSTSTVFMELHNLKSEDTAVYYCARAISEHGSGSYSPYYWGQGTLVTVSS VL: SYELTQPPSVSVSLGQMAAITCSGEALPKKYGYWYQQKPGQVPVLLIYRDVERPSGVPDRFSGSSSGTMVTLTISGVQAEDEADYYCLSADSSGTWVFGGGTKLTVLG | 2400 pM |  |  |
| natZr-DFO-AP-101 (antibody, V domains shown, DFO chelator conjugated on lysines (DFO:antibody 1.1:1.0), natZr labelled) VH: QVQLVQSGAEVKKPGASVTLSCKASGYTFTAYYIHWVRQAREQGLEWMGVINPSTGTTFYAQNFPDRVSVTRDTSTSTVFMELHNLKSEDTAVYYCARAISEHGSGSYSPYYWGQGTLVTVSS VL: SYELTQPPSVSVSLGQMAAITCSGEALPKKYGYWYQQKPGQVPVLLIYRDVERPSGVPDRFSGSSSGTMVTLTISGVQAEDEADYYCLSADSSGTWVFGGGTKLTVLG | 300 pM | 500 pM |  |
| AP-101 (non-modified alpha-miSOD1) (antibody, V domains shown) VH: QVQLVQSGAEVKKPGASVTLSCKASGYTFTAYYIHWVRQAREQGLEWMGVINPSTGTTFYAQNFPDRVSVTRDTSTSTVFMELHNLKSEDTAVYYCARAISEHGSGSYSPYYWGQGTLVTVSS VL: SYELTQPPSVSVSLGQMAAITCSGEALPKKYGYWYQQKPGQVPVLLIYRDVERPSGVPDRFSGSSSGTMVTLTISGVQAEDEADYYCLSADSSGTWVFGGGTKLTVLG |  |  | 200 pM |
